What was measured:
[1] = molecular target: Smc5/6 hexameric complex lacking Nse5/6 (S. cerevisiae) (UniProt Q08204)
[2] = molecular target: Smc5/6 hexameric complex lacking Nse5/6 (S. cerevisiae) (UniProt Q08204); experiment: mass photometry; 10 nM hexamer with 10 nM purified Nse5/6 (1:1) and 5 nM 200 bp DNA, no ATP; 40 mM Tris-HCl pH 7.5, 100 mM potassium glutamate, 7.5 mM MgCl2, 30 °C for 10 min; details: remark: other sources report otherwise
[3] = molecular target: Smc5/6 hexameric complex lacking Nse5/6 (S. cerevisiae) (UniProt Q08204); experiment: mass photometry; 10 nM complex with 5 nM 200 bp linear double-stranded DNA, no ATP; 40 mM Tris-HCl pH 7.5, 100 mM potassium glutamate, 7.5 mM MgCl2, 30 °C for 10 min; monomer to dimer of complexes; details: remark: other sources report otherwise
[4] = molecular target: Smc5/6 octameric complex with Nse4-6xHis-SNAP labelled with Alexa 647 (S. cerevisiae) (UniProt Q08204); experiment: single-molecule fluorescence, counting of photobleaching steps; Alexa 647-labelled complex (2 nM unless stated otherwise) on surface-tethered lambda-DNA; 40 mM Tris-HCl pH 7.5, 100 mM NaCl, 7.5 mM MgCl2, 2 mM ATP, 30 °C; loop-extruding complexes
[5] = molecular target: Smc5/6 hexameric complex lacking Nse5/6 with Nse4-6xHis-SNAP labelled with Alexa 647 (S. cerevisiae) (UniProt Q08204); experiment: as above; details: remark: other sources report otherwise
[6] = molecular target: Smc5/6 octameric complex with Nse2-6xHis-SNAP labelled with Alexa 647 (S. cerevisiae) (UniProt Q08204); experiment: as above
[7] = molecular target: Smc5/6 octamer (WT, with Nse5/6) (Saccharomyces cerevisiae (W303)) (UniProt Q08204+Q12749+Q07913+P38632+Q05541+P43124+Q03718+P40026); experiment: single-molecule fluorescence; details: 1 M NaCl wash after 1 h incubation; nonlooping complexes, n=481; both ends tethered to surface; Mass photometry: 40 mM Tris-HCl pH 7.5, 100 mM K-glutamate, 7.5 mM MgCl2, 30 C, 10 nM protein, 5 nM DNA; single-molecule: 2 nM Smc5/6, imaging buffer with …
[8] = molecular target: Smc5/6 hexamer (lacking Nse5/6) (Saccharomyces cerevisiae (W303)) (UniProt Q08204+Q12749+Q07913+P38632+Q05541+P43124); experiment: single-molecule fluorescence; details: 1 M NaCl wash; both ends tethered to surface; Mass photometry: 40 mM Tris-HCl pH 7.5, 100 mM K-glutamate, 7.5 mM MgCl2, 30 C, 10 nM protein, 5 nM DNA; single-molecule: 2 nM Smc5/6, imaging buffer with …

Smc5/6 hexameric complex lacking Nse5/6, Q08204 1-1093; Q12749 1-1114; Q07913 1-336; P38632 1-267; Q05541 1-303; P43124 1-402
looping probability of DNA with the hexamer compared with the WT octamer [1]: 15 fold | dimers, percent of total counts, with Nse5/6 added 1:1 [2]: 3% | dimers, percent of normalized population [3]: 40% | dimers, percent of total counts [3]: 25%

Smc5/6 octameric complex with Nse4-6xHis-SNAP labelled with Alexa 647 (from UniProt Q08204 1-1093; Q12749 1-1114; Q07913 1-336; P38632 1-267; Q05541 1-303; P43124 1-402; Q03718 1-556)
dimer fraction [4]: 100% | stoichiometry N [4]: 2

Smc5/6 hexameric complex lacking Nse5/6 with Nse4-6xHis-SNAP labelled with Alexa 647, Q08204 1-1093; Q12749 1-1114; Q07913 1-336; P38632 1-267; Q05541 1-303; P43124 1-402
stoichiometry N [5]: 2

Smc5/6 octameric complex with Nse2-6xHis-SNAP labelled with Alexa 647 (from UniProt Q08204 1-1093; Q12749 1-1114; Q07913 1-336; P38632 1-267; Q05541 1-303; P43124 1-402; Q03718 1-556)
stoichiometry N [6]: 2

lambda DNA, 48.5 kbp (48,502 bp)
binding signal (% remaining bound after high-salt wash) [7]: 7 | binding signal (% remaining bound after high-salt wash) [8]: 0

Reference: article PMC10132971
